Assay results reported in patent US20250388666A1 (BRIGHAM AND WOMEN S HOSPITAL, published 2025).

T1: CEACAM3 (Sino Biological) (human, UniProt P40198 35-155, limits assumed)
T1 construct: also called hCEACAM3
T1 sequence (looked up): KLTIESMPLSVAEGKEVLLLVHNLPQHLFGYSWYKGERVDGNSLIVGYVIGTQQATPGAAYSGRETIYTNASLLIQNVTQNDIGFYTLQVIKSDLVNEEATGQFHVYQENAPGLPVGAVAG

T2: CEACAM1 (Sino Biological) (human, UniProt P13688 35-428, limits assumed)
T2 construct: may be the same as CEACAM1-HIS; also called hCEACAM1; biotinylated soluble CEACAM1
T2 sequence: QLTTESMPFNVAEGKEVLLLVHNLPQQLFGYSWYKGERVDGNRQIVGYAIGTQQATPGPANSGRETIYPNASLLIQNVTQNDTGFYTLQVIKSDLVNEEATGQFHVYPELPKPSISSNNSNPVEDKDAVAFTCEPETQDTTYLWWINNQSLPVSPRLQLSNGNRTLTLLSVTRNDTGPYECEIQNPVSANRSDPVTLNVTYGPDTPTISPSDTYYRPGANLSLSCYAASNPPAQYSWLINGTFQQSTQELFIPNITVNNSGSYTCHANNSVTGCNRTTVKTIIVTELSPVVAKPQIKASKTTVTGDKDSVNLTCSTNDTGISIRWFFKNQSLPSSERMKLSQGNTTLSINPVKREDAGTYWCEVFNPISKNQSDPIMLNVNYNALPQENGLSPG

T3: human GST-CEACAM1 (human, UniProt P13688 35-141, limits assumed)
T3 construct: printed both as GST-CEACAM1 and CEACAM1-GST; also called human CEACAM1-GST protein; hCEACAM1-GST; not shown: GST tag
T3 sequence: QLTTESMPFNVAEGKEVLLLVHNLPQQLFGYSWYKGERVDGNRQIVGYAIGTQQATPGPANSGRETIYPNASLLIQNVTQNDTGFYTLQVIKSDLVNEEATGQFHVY

T4: CEACAM1-HIS (Sino Biologics Inc.) (Homo sapiens (Human), UniProt P13688 35-428)
T4 construct: bought; not shown: His tag
T4 sequence: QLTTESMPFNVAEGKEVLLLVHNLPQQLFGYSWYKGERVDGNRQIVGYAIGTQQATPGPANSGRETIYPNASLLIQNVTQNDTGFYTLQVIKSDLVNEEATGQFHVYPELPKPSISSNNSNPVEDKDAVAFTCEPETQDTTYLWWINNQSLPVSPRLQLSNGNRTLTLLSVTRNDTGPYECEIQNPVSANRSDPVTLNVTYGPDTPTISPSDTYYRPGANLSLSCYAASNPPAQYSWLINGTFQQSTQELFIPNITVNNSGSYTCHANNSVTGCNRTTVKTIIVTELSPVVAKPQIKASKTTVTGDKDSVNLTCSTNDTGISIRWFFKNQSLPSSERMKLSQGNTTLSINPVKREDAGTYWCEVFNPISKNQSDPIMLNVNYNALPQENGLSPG


Tests used:
[1] = biological target: T1, CEACAM3 (Sino Biological); test: binding ELISA on plate-coated CEACAM (0.5 µg/mL); antibody at 1.67, 0.062 and 0.0069 µg/mL; signal as % of parent IgG on CEACAM1 at 1.67 µg/mL on the same plate
[2] = biological target: T2, CEACAM1 (Sino Biological); test: SPR multi-cycle, IgG on Protein A
Experimental: Multi-cycle kinetics analysis was performed on the twelve lead antibodies using a Biacore T200 instrument running Biacore T200 Evaluation Software V3.0.1 (Uppsala, Sweden) to establish an accurate affinity for CEACAM1. The purified antibodies were diluted to a concentration of […] in HBS-P+. At the start of each cycle, each antibody was captured on the Protein A surface to give an RL of ˜100 RU. Following capture, the surface was allowed to stabilize. Kinetic data was obtained using a flow rate of […] to minimize any potential mass transfer effects. For the kinetics analysis, CEACAM1 was used. Multiple repeats of the blank ([…]) and a repeat of a single concentration of the analyte were programmed into the kinetic run in order to check the stability of both the surface and analyte over the kinetic cycles. For kinetic analysis, a two-fold dilution range was selected from 200 to 3.125 nM CEACAM1. The association phase of CEACAM1 was monitored for 275 seconds and the dissociation phase was measured for 250 seconds. Regeneration of the Protein A surface was conducted using two injections of 10 mM glycine-HCL pH 1.5 at the end of each cycle.
The signal from the reference channel Fc1 was subtracted from that of Fc2, Fc3 and Fc4 to correct for differences in non-specific binding to a reference surface, and a global Rmax parameter was used in the 1-to-1 binding model. The relative KD was calculated by dividing the KD of the RSB02 Parent by that of the humanized and affinity matured variants on the same chip.

[3] = biological target: T2, CEACAM1 (Sino Biological); test: SPR single-cycle
Method in brief: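 Humanized affinity-matured IgGs from crude supernatants captured on Protein A to ~100 RU, with CEACAM1 analyte injected at 25–100 nM (three-point, two-fold) in HBS-P+ without regeneration. 200 s association per injection, 300 s single dissociation; reference-channel and blank subtracted.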

[4] = biological target: T3, human GST-CEACAM1; test: competition ELISA vs murine parent antibody
Experimental: The binding of the purified chimeric antibody to human CEACAM1 was assessed in a competition ELISA assay. Nunc Immuno MaxiSorp 96 well flat bottom microtitre plates were pre-coated with 1 μg/ml human GST-CEACAM1 in 1×PBS, overnight at 4° C. The following day the plates were blocked for 1 hour at room temperature with 2% BSA/PBS before washing 2× with PBS/0.05% Tween 20 pH 7.4.
The binding of the purified antibodies to human CEACAM1 were assessed in a competition ELISA assay as described above. The ability of each variant to compete against the murine parental antibody for binding to the GST-CEACAM1 was compared to that of the chimeric antibody (VH0/Vκ0), which was included on each plate.

[5] = biological target: T4, CEACAM1-HIS (Sino Biologics Inc.); test: SPR single-cycle, IgG on Protein A
Experimental: (§1) As an alternative approach to assess the binding of the antibody combinations and the control antibodies to CEACAM1, a kinetic analysis was performed on a Biacore T200 running Biacore T200 Evaluation Software V2.0.1. All experiments were run at 25° C. with HBS-P+ running buffer (pH 7.4).
In order to assess the binding of all Composite Human Antibody™ variants, single cycle kinetic analysis was performed on the supernatants of all the transiently transfected HEK EBNA cells. Purified chimeric antibody and purified chimeric antibody spiked into HEK EBNA media were used as positive controls. Supernatants were diluted in HBS-P+ to a concentration of 1 μg/mL (as determined by an IgG quantitation ELISA). At the start of each cycle, antibodies were loaded onto Fc2, Fc3 and Fc4 of a Protein A chip and captured at a flow rate of 8 μL/min to give an RU of ˜100. The surface was then allowed to stabilize. Single cycle kinetic data was obtained at a flow rate of […] to minimize any potential mass transfer effects. Multiple repeats of the chimeric antibody were performed to check the stability of the surface and analyte over the kinetic cycles. The signal from the reference channel Fc1 (no antibody) was subtracted from that of Fc2, Fc3 and Fc4 to correct for differences in non-specific binding to a reference surface. A 5 point 2-fold dilution range from 3.125 to 50 nM CEACAM1 without regeneration between each concentration was used. The association phase for the 5 injections of increasing concentrations of CEACAM1 was monitored for 150 seconds and a single dissociation phase was measured for 150 seconds following the last injection of CEACAM1. Regeneration of the Protein A was conducted using 2 injections of 10 mM glycine-HCL pH 1.5 followed by a stabilization period of 500 seconds.
In the raw sensorgrams for the single cycle kinetics, the signal from each antibody blank run (no CEACAM1) was subtracted to correct for differences in surface stability.

[6] = biological target: T4, CEACAM1-HIS (Sino Biologics Inc.); test: SPR multi-cycle, IgG on Protein A
Experimental: as §1
For multi-cycle kinetic analysis purified antibody was immobilized at a protein concentration of 1 μg/mL in HBS-P+. At the start of each cycle, antibody was captured on Protein A to give an RU of ˜100 and the surface allowed to stabilize. Kinetic data was obtained at a flow rate of 35 μl/min to minimize any potential mass transfer effects. Multiple repeats of the blank (no CEACAM1) and a repeat of a single concentration of the analyte were programmed into the kinetic run in order to check the stability of both the surface and analyte over the kinetic cycles. For kinetic analysis, a 2-fold dilution series was selected from 100 to 1.5625 nM CEACAM1. The association phase of CEACAM1 was monitored initially for 180 seconds. In the subsequent experiment a longer association time (275 seconds) was used in order to better reach steady state. The dissociation phase was measured for 250 seconds. Regeneration of the Protein A surface was conducted using 2 injections of 10 mM glycine-HCL pH 1.5 at the end of each cycle.
The signal from the reference channel Fc1 was subtracted from that of Fc2, Fc3 and Fc4 to correct for differences in non-specific binding to a reference surface, a global Rmax parameter was used in the 1-to-1 binding model. The relative KD compared to the chimeric parental antibody was calculated by dividing the KD of the Composite Human Antibody™ variants by that of the chimeric parental antibody on the same chip.

[7] = biological target: T4, CEACAM1-HIS (Sino Biologics Inc.); test: SPR multi-cycle

Binder	binding result [1]	Kd [2] [nM]	koff [2] [s⁻¹]	kon [2] [M⁻¹ s⁻¹]	relative KD to Parent [2] [ratio]	Kd [3] [nM]	fold better than Parent (KD) [3] [fold]	average relative IC50 (normalized to chimeric antibody) [4] [ratio]	Kd [5] [nM]	relative KD to chimeric parental antibody [5] [ratio]	Kd [6] [nM]	koff [6] [s⁻¹]	kon [6] [M⁻¹ s⁻¹]	relative KD to chimeric parental antibody [6] [ratio]	average relative KD to chimeric parental antibody [7] [ratio]	relative KD to chimeric parental antibody expt 1 [7] [ratio]	relative KD to chimeric parental antibody expt 2 [7] [ratio]
He17/L1 (antibody, IgG4, V domains shown, IgG4 S241P, kappa; also called 17 / 1; H17/L1) VH: EVQLLESGGGLVQPGGSLRLSCAASGFSFSDYYLYWVRQAPGKGLEWVATISVGGGQTSYADSVKGRFTISRDNSKNTLYLQMNSLRAEDTAMYYCTRARTYGPAWFAYWGQGTLVTVSS VL: DIVMTQSPDSLAVSLGERATINCKSSQSLLNSANQKNYLAWYQQKPGQPPKLLIYFASTRESGVPDRFSGSGSGTDFTLTISSLQAEDVAVYYCQSHYPFYYTFGGGTKVEIK	no binding (tested: 1.67 µg/mL)	13.5	0.00409	302000	6.31	78	2.03										
VH1/Vκ2 (antibody, V domains shown) VH: EVQLLESGGGLVQPGGSLRLSCAASGFIFSSHGMSWVRQAPGKGLEWVATISSGGTYTYYPDSVKGRFTISRDNSKNTLYLQMNSLKAEDTAMYYCARHDFDYDAAWFAYWGQGTLVTVSS VL: EIVLTQSPATLSLSPGERATLSCRANSSVSYMYWYQQKPGQAPRPWIYLTSNRATGVPARFSGSGSGTDYTLTISSLEPEDFATYYCQQWSSNPPTFGQGTKLEIK								1.3	148	3.4	28.3	0.00551	195000	1.27	1.46	1.66	1.27
VH2/Vκ2 (antibody, V domains shown) VH: EVQLLESGGGLVQPGGSLRLSCAASGFIFSSHGMSWVRQAPGKGLEWVATISSGGTYTYYPDSVKGRFTISRDNSKNTLYLQMNSLRAEDTAMYYCARHDFDYDAAWFAYWGQGTLVTVSS VL: EIVLTQSPATLSLSPGERATLSCRANSSVSYMYWYQQKPGQAPRPWIYLTSNRATGVPARFSGSGSGTDYTLTISSLEPEDFATYYCQQWSSNPPTFGQGTKLEIK								1.6	138	3.2	27.8	0.00496	179000	1.25	1.27	1.29	1.25
VH2/Vκ1 (antibody, V domains shown) VH: EVQLLESGGGLVQPGGSLRLSCAASGFIFSSHGMSWVRQAPGKGLEWVATISSGGTYTYYPDSVKGRFTISRDNSKNTLYLQMNSLRAEDTAMYYCARHDFDYDAAWFAYWGQGTLVTVSS VL: QIVLTQSPALLSLSPGERATMSCSANSSVSYMYWYRQKPGQAPKPWIYLTSNLASGVPARFSGSGSGTDYTLTISSLEAEDFATYYCQQWSSNPPTFGQGTKLEIK								1.7	180	4.2	33.3	0.0052	156000	1.22	1.31	1.39	1.22
